In the test the target is T1, Sec23–Sec24 complex (WT) (yeast (S. cerevisiae), UniProt P15303 1-768; P40482 1-926).
T1 construct: Sec23, COPII inner coat subunit, yeast; Co-expressed and co-purified complex; also called Sec23 and His-Sec24; inner coat; source: Sf9 cells (pFastbac), purified (HisTrap HP, HiTrap Q HP)
The experiment in a line: liposome flotation (coat recruitment to synthetic liposomes); purified Sar1 (15 µg/ml), Sec23–Sec24 (20 µg/ml), Sec13–Sec31 (30 µg/ml), 0.27 mM major/minor liposomes (0.4 µm), 0.1 mM GMP-PNP, HKM buffer pH 7.0, 30 min at 25°C; liposomes floated through sucrose; bound proteins by SDS-PAGE and SYPRO red. Conditions: both partners purified.

T1 sequence (P15303 whole entry, chain 1 of 2): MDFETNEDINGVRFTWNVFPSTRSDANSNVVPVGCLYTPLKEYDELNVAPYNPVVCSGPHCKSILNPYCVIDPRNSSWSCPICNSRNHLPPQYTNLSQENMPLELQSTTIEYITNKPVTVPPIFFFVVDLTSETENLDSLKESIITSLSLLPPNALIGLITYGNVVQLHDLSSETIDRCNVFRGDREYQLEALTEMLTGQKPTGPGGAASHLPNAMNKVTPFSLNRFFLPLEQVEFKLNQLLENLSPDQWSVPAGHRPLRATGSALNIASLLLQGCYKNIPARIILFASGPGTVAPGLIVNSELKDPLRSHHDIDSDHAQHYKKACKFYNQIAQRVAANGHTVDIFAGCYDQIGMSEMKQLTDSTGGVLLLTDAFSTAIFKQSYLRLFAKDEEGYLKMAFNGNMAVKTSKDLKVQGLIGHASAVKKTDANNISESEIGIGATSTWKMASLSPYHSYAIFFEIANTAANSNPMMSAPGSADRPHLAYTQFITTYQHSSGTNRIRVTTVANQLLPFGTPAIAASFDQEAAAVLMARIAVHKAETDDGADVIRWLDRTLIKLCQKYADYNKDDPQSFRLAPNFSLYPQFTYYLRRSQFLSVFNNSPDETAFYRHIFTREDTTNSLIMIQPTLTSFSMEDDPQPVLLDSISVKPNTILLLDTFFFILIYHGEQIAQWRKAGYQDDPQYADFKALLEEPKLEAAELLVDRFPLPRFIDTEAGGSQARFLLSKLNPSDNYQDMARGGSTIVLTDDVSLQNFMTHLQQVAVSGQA
T1 sequence (P40482 whole entry, chain 2 of 2): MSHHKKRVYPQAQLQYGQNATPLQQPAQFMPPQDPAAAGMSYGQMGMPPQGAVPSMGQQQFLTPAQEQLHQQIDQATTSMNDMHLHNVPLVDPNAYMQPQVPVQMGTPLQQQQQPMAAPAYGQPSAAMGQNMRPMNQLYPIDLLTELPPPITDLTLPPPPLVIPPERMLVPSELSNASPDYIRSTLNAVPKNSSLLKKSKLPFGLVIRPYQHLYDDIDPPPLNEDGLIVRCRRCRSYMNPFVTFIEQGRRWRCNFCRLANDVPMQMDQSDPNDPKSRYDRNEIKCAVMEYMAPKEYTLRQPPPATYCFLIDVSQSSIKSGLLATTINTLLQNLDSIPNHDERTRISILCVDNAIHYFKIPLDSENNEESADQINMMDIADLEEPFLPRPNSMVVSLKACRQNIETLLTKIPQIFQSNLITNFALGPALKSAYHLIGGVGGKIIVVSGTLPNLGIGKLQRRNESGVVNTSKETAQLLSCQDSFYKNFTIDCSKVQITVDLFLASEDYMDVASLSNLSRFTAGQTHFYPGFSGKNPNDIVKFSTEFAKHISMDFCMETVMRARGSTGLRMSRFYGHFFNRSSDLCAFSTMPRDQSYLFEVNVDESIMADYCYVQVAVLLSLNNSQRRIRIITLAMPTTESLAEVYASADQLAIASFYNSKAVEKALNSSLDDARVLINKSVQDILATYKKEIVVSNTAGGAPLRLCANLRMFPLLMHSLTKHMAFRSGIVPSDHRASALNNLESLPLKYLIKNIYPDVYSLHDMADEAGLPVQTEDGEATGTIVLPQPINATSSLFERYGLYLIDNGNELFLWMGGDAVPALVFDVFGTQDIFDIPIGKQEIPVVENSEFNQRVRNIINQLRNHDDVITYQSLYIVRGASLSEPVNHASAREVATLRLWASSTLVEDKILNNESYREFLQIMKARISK

B1: Sec13–Sec31 complex (WT) (complex, yeast (S. cerevisiae) | S. cerevisiae)
chain 1: MVVIANAHNELIHDAVLDYYGKRLATCSSDKTIKIFEVEGETHKLIDTLTGHEGPVWRVDWAHPKFGTILASCSYDGKVLIWKEENGRWSQIAVHAVHSASVNSVQWAPHEYGPLLLVASSDGKVSVVEFKENGTTSPIIIDAHAIGVNSASWAPATIEEDGEHNGTKESRKFVTGGADNLVKIWKYNSDAQTYVLESTLEGHSDWVRDVAWSPTVLLRSYLASVSQDRTCIIWTQDNEQGPWKKTLLKEEKFPDVLWRASWSLSGNVLALSGGDNKVTLWKENLEGKWEPAGEVHQ
chain 2: MVKLAEFSRTATFAWSHDKIPLLVSGTVSGTVDANFSTDSSLELWSLLAADSEKPIASLQVDSKFNDLDWSHNNKIIAGALDNGSLELYSTNEANNAINSMARFSNHSSSVKTVKFNAKQDNVLASGGNNGEIFIWDMNKCTESPSNYTPLTPGQSMSSVDEVISLAWNQSLAHVFASAGSSNFASIWDLKAKKEVIHLSYTSPNSGIKQQLSVVEWHPKNSTRVATATGSDNDPSILIWDLRNANTPLQTLNQGHQKGILSLDWCHQDEHLLLSSGRDNTVLLWNPESAEQLSQFPARGNWCFKTKFAPEAPDLFACASFDNKIEVQTLQNLTNTLDEQETETKQQESETDFWNNVSREESKEKPTVFHLQAPTWYGEPSPAAHWAFGGKLVQITPDGKGVSITNPKISGLESNTTLSEALKTKDFKPLINQRLVKVIDDVNEEDWNLLEKLSMDGTEEFLKEALAFDNDESDAQDDANNEKEDDGEEFFQQIETNFQPEGDFSLSGNIEQTISKNLVSGNIKSAVKNSLENDLLMEAMVIALDSNNERLKESVKNAYFAKYGSKSSLSRILYSISKREVDDLVENLDVSQWKFISKAIQNLYPNDIAQRNEMLIKLGDRLKENGHRQDSLTLYLAAGSLDKVASIWLSEFPDLEDKLKKDNKTIYEAHSECLTEFIERFTVFSNFINGSSTINNEQLIAKFLEFINLTTSTGNFELATEFLNSLPSDNEEVKTEKARVLIASGKSLPAQNPATATTSKAKYTNAKTNKNVPVLPTPGMPSTTSIPSMQAPFYGMTPGASANALPPKPYVPATTTSAPVHTEGKYAPPSQPSMASPFVNKTNSSTRLNSFAPPPNPYATATVPATNVSTTSIPQNTFAPIQPGMPIMGDYNAQSSSIPSQPPINAVSGQTPHLNRKANDGWNDLPLKVKEKPSRAKAVSVAPPNILSTPTPLNGIPANAASTMPPPPLSRAPSSVSMVSPPPLHKNSRVPSLVATSESPRASISNPYAPPQSSQQFPIGTISTANQTSNTAQVASSNPYAPPPQQRVATPLSGGVPPAPLPKASNPYAPTATTQPNGSSYPPTGPYTNNHTMTSPPPVFNKPPTGPPPISMKKRSNKLASIEQNPSQGATYPPTLSSSASPLQPSQPPTLASQVNTSAENVSHEIPADQQPIVDFLKEELARVTPLTPKEYSKQLKDCDKRLKILFYHLEKQDLLTQPTIDCLHDLVALMKEKKYKEAMVIHANIATNHAQEGGNWLTGVKRLIGIAEATLN
notes: Sec13, COPII outer coat subunit, yeast; Sec31, COPII outer coat subunit, S. cerevisiae; disordered proline-rich region defined as residues 764-1,174; also called outer coat; WT Sec31; source: Sf9 cells (pFastbac), purified (HisTrap HP, TEV cleavage of the 6xHis tag on Sec31, HiTrap Q HP); not shown: His6, N-terminal, cleaved
As for B1, the binding result was “binds”.

For the origin of these results see article PMC7594496, “Combinatorial multivalent interactions drive cooperative assembly of the COPII coat” (The Journal of Cell Biology, 2020).
